Substitutions are numbered along the chain they refer to. Numbers in names are those of the source.
B1: human copper chaperone for SOD1 Ala231Gly (natural protein, UniProt O14618 1-274, looked up)
chain: MASDSGNQGTLCTLEFAVQMTCQSCVDAVRKSLQGVAGVQDVEVHLEDQMVLVHTTLPSQEVQALLEGTGRQAVLKGMGSGQLQNLGAAVAILGGPGTVQGVVRFLQLTPERCLIEGTIDGLEPGLHGLHVHQYGDLTNNCNSCGNHFNPDGASHGGPQDSDRHRGDLGNVRADADGRAIFRMEDEQLKVWDVIGRSLIIDEGEDDLGRGGHPLSKITGNSGERLACGIIGRSAGLFQNPKQICSCDGLTIWEERGRPIAGKGRKESAQPPAHL
notes: also called Ala231Gly hCCS; A231G hCCS; source: expressed and purified as previously described [29,35,42]
B2: wild-type human copper chaperone for SOD1 (natural protein, UniProt O14618 1-274, looked up)
chain: B1 chain with G231A
notes: human copper chaperone for SOD1 (hCCS), wild type; also called hCCS; wild-type hCCS; source: expressed and purified as previously described [29,35,42]

Experiments:
[1] = target: human copper chaperone for SOD1 domain II–III construct (human); assay: SEC-MALS; SEC and light scattering–derived molecular weights of hCCS truncations at micromolar concentration
[2] = target: human superoxide dismutase-1 as used in the SEC complexation assays (variant not stated) (human) (UniProt P00441); assay: SEC; complexation of hCCS dimer interface variants with hSOD1 followed over a time course from 8 minutes to 4 days; Agilent BioSec Advance 300 Å 4.6 × 300 mm column; heterodimer peak height plotted
[3] = target: the molecule itself; assay: SEC; size exclusion chromatograms of hCCS alone (wild type and Ala231Gly); relative amounts of dimeric and monomeric species

| Molecule | stoichiometry N [1] | fold slower complexation than with wild-type hCCS [2] [fold] | binding result [3] |
| --- | --- | --- | --- |
| human copper chaperone for SOD1 domain II–III construct (domain or fragment) | 2 |  |  |
| B1 |  | > 300 | binds |
| B2 |  |  | binds |

— publication PMC6383938 (PLoS Biology, 2019)
